As usually defined, the Kd is the equilibrium constant for the complex coming apart. Read a high Kd as a looser complex.

This experiment addresses human CD40 (human) (UniProt P25942). The experiment is described as follows: Biacore (SPR). A general note: SPR reads the build-up and loss of mass on a sensor chip optically.
Chain of UniProt P25942 (P25942 20-193 limits assumed): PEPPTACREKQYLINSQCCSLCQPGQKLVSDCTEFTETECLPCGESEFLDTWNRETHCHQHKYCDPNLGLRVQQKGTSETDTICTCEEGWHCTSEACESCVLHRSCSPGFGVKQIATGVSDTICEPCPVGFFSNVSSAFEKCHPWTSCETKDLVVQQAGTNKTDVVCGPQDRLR

As to monoclonal antibody CHIR-12.12, the Kd was determined as 0.5 nM.

B1: monoclonal antibody CHIR-5.9 (antibody, human IgG1, kappa, V domains shown)
VH: EVQLVQSGAEVKKPGESLKISCKGSGYSFTSYWIGWVRQMPGKGLEWMGIIYPGDSDTRYSPSFQGQVTISADKSISTAYLQWSSLKASDTAMYYCARGTAAGRDYYYYYGMDVWGQGTTVTVSS
VL: AIVMTQPPLSSPVTLGQPASISCRSSQSLVHSDGNTYLNWLQQRPGQPPRLLIYKFFRRLSGVPDRFSGSGAGTDFTLKISRVEAEDVGVYYCMQVTQFPHTFGQGTRLEIKR
The molecule B1 displayed a dissociation constant Kd of 12 nM.

The values are drawn from US20090304706A1.
